# Test results published in patent US20250003940A1, “BIOSENSOR, BIOSENSOR COMPONENTS, AND USE THEREOF” (VICTORIA LINK LIMITED, priority 2021, published 2025).
# B1: BpsA: Streptomyces lavendulae blue pigment synthetase A, converts glutamine to indigoidine, SEQ ID NO: 1 (protein, UniProt Q1MWN4 1-1282, looked up)
# Indigoidine synthase: MTLQETSVLEPTLQGTTTLPGLLAQRVAEHPEAIAVAYRDDKLTFRELASRSAALADYLEHLGVSADDCVGLFVEPSIDLMVGAWGILNAGAAYLPLSPEYPEDRLRYMIENSETKIILAQQRLVSRLRELAPKDVTIVTLRESEAFVRPEGTEAPAARSARPDTLAYVIYTSGSTGKPKGVMIEHRSIVNQLGWLRETYAIDRSKVILQKTPMSFDAAQWEILSPANGATVVMGAPGVYADPEGLIETIVKHNVTTLQCVPTLLQGLIDTEKFPECVSLQQIFSGGEALSRLLAIQTTQEMPGRALINVYGPTETTINSSSFPVDPADLDEGPQSISIGSPVHGTTYHILDKETLKPVGVGEIGELYIGGIQLARGYLHRDDLTAERFLEIELEEGAEPVRLYKTGDLGQWNNDGTVQFAGRADNQVKLRGYRVELDEISLAIENHDWVRNAAVIVKNDGRTGFQNLIACIELSEKEAALMDQGNHGSHHASKKSKLQVKAQLSNPGLRDDAELAARPAFDLEGAEPTPEQRARVFARKTYRFYEGGAVTQADLLGLLGATVTAGYSRKAADLAPAELGQILRWFGQYISEERLLPKYGYASPGALYATQMYFELEGVGGLKPGYYYYQPVRHQLVLISEREATGKATAQIHFIGKKSGIEPVYKNNILEVLEIETGHMVGLFEQILPAYGLDIHDRAYEPAVKDLLDVADEDYYLGTFELVPHAGARDDQAEVYVQTHGGKVAGLPEGQYRYENGELTRFSDDIVLKKHVIAINQSVYQAASFGISVYSRAEEEWLKYITLGKKLQHLMMNGLNLGFMSSGYSSKTGNPLPASRRMDAVLGANGVDSAPMYFFVGGRISDEQIGHEGMREDSVHMRGPAELIRDDLVSFLPDYMIPNRVVVFDRLPLSANGKIDVKALAASDQVNAELVERPFVAPRTETEKEIAAVWEKALRRENASVQDDFFESGGNSLIAVGLVRELNARLGVSLPLQSVLESPTIEKLARRLEREVAQESSRFVRLHAETGKARPVICWPGLGGYPMNLRSLAGEIGLGRSFYGVQSYGINEGETPYETITEMAKKDIEALKEIQPAGPYTLWGYSFGARVAFETAYQLEQAGEKVDNLFLIAPGSPKVRAENGKVWGREASFANRGYTTILFSVFTGTISGPDLDRCLETVTDEASFAEFISELKGIDVDLARRIISVVGQTYEFEYSFHELAERTLQAPISIFKAVGDDYSFLENSSGYSAEPPTVIDLDADHYSLLREDIGELVKHIRYLLGE
# Experiment: Enzyme activity after freeze-drying with stabilisers
# Assay type: physicochemical
# Conditions: freeze-dried with different stabilisers, compared with non-freeze-dried standard
# Procedure: FIG. 23A: RcArgZ activity levels after freeze-drying with different additives. RcArgZ was purified and exchanged into the freeze-drying buffers. The buffers contained 50 mM Tris-Cl pH 8.0, 1 mM MgCl2, and one of the stabilisers. The stabilisers were the following: 1 mM mannitol, 40 mg/mL mannitol, 1 mM sucrose, 10 mg/mL sucrose, 1 mM trehalose, 20 mg/mL trehalose, or 20 mg/mL sucrose and 40 mg/mL mannitol. The sample was then snap frozen using liquid nitrogen before putting in a benchtop freeze-dryer. The sample was left drying for 18-24 hours. The activity of the freeze-dried enzymes was tested and compared with the non-freeze-dried standard (in their corresponding storage buffer).
# FIG. 23B: HpGS activity levels after freeze-drying with different additives. HpGS was purified and buffer exchanged to the freeze-drying buffers. The buffers contained 50 mM Tris-Cl pH 8.0, 1 mM MgCl2, and the stabilisers. The stabilisers were the following: 1 mM mannitol, 40 mg/mL mannitol, 1 mM sucrose, 10 mg/mL sucrose, 1 mM trehalose, 20 mg/mL trehalose, or 20 mg/mL sucrose and 40 mg/mL mannitol. The sample was then snap frozen using liquid nitrogen before putting in a benchtop freeze-dryer. The sample was left drying for 18-24 hours. The activity of the freeze-dried enzymes was tested and compared with the non-freeze-dried standard (in their corresponding storage buffer). […]
molecule,measurement,value
B1,activity when freeze-dried,able to retain activity
